A value given as a limit tells only on which side of the number the result lay.

The target of the test is FLAG-epitope tagged HIV tat interacting protein of 30 kDa (f-TIP30) (human (isolated from HeLa cells)) (UniProt Q9BUP3). In words: affinity chromatography of B. mori fat bodies extract, SDS-PAGE of the unbound fraction; the filing puts this down to saturated beads.
Chain of UniProt Q9BUP3 (Q9BUP3 other isoform, or with tags, fused parts or gaps limits assumed): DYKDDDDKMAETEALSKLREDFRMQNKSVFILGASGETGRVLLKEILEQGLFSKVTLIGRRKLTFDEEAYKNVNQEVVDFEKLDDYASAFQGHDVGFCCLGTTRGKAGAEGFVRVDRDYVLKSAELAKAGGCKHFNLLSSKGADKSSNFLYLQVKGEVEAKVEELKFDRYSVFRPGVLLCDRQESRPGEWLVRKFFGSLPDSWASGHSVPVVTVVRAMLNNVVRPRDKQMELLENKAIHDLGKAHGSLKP

M2-Agarose resin (Sigma) (antibody) yielded a share of expressed protein remaining in the unbound fraction greater than 30%.

(Values after patent US6485937.)
